These results are taken from patent publication US20250381223A1 (UTC THERAPEUTICS SHANGHAI, published 2025).

Test [1] deals with T1, CD40-Fc ( for this staining reagent …, UniProt P25942).
T1 construct: soluble Fc fusion; Staining reagent, detected with PE-anti-Fc
The test is described as follows: flow cytometry, lentivirus-transduced T cells, CD40-Fc 2 µg/mL + PE-anti-Fc; UTD 0.66, M12 1.16. The protocol: (§1) The transduction efficiency of the CAR-T cells was detected as follows: […] CAR-T cells were plated into each well of a 96-well plate, and the plate was washed once with PBS. 50 μL of Meso-Fc or CD40-Fc protein at a final concentration of 2 μg/mL was added to each well, and the mixture was incubated for 30 min at 4° C. The cells were washed 3 times with PBS, and 50 μL of PE-anti-Fc antibody at a final concentration of 1 μg/mL was added to each well. The mixture was incubated at 4° C. for 30 min. After being washed twice with PBS, the cells were detected by a flow cytometer.
In general terms: A flow cytometer gives signals particle by particle.

The target of test [2] is T1, CD40-Fc. The test is described as follows: flow cytometry, lentivirus-transduced T cells, CD40-Fc + PE-anti-Fc. As for the experimental part: as §1
Test [3] concerns the target T2, mesothelin-Fc recombinant protein (human, UniProt Q13421 296-580, limits assumed).
T2 construct: construct not described; also called Meso-Fc; not shown: Fc part
The test is described as follows: flow cytometry, T cells with CAR mRNA, mesothelin-Fc + PE-anti-IgG-Fc; Control 0.63. As for the experimental part:
Mesothelin CAR mRNA obtained in Example 26 above was introduced into A549 tumor cells and T cells by electroporation, and the procedures are as follows: A549 tumor cells and T cells were collected and washed 3 times with the Opti-MEM medium. The cell pellet was resuspended in the Opti-MEM medium and the cell concentration was adjusted to 1×10e7 cells/mL. 10 μg of RNA was aliquoted into 1.5-mL EP tubes, 100 μL of T cells or A549 cells were added, followed by mixing well. 100 μL of cells mixed with RNA were added to the BTX electroporation cuvette and slight tapping was performed to avoid air bubbles. Electroporation was performed using a BTX instrument under the following parameters: for T cells: 500 V voltage, 0.7 ms; for A549 tumor cells: 300 V voltage, 0.5 ms. The cells were then transferred to a pre-warmed medium and cultured at 37° C. The binding of mesothelin CART cells to the mesothelin-Fc recombinant protein was determined by FACS staining. […] T cells without CAR molecules served as the control (“Mock”).

Test [4] concerns the target T3, CD40-Fc (human, UniProt P25942).
T3 construct: part fused to Fc; staining reagent of the flow cytometry; also called recombinant human CD40-Fc antigen protein
The test is described as follows: flow cytometry of T cells electroporated with 2 µg M12 CAR mRNA alone; CD40-Fc + PE-anti-Fc.

T2 sequence (Q13421 other isoform, or with tags, fused parts or gaps limits assumed): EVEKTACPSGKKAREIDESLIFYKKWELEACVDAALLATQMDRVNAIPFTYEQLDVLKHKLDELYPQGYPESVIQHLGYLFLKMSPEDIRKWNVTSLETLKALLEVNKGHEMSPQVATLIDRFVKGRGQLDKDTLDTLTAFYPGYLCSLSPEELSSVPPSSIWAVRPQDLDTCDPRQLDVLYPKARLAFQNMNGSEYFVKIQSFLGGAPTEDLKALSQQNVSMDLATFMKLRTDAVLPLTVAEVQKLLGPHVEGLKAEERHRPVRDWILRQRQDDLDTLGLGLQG

B1: A40C2828 (other)
membrane fusion protein with an anti-CD40 antibody part: QVQLVQSGAEVKKPGASVKVSCTASGFNIKDYYVHWVKQAPGQGLEWMGRIDPEDGDSKYAPKFQGKATMTADTSTSTVYMELSSLRSEDTAVYYCTTSYYVGTYGYWGQGTLVTVSSGGGGSGGGGSGGGGSDIQMTQSPSSLSASVGDRVTITCSASSSVSYMLWFQQKPGKAPKLLIYSTSNLASGVPSRFSGSGSGTDFTLTISSLQPEDFATYYCQQRTFYPYTFGGGTKVEIKRTASIEVMYPPPYLDNEKSNGTIIHVKGKHLCPSPLFPGPSKPFWVLVVVGGVLACYSLLVTVAFIIFWVRSKRSRLLHSDYMNMTPRRPGPTRKHYQPYAPPRDFAAYRS
notes: also called new A40C28; New A40C28
With B1, the “percent of cells in the gate” value in the test with CD40-Fc [1] turned out to be 39.8%.

B2: anti-mesothelin scFv-M12 (scFv)
scFv: AIRLTQSPSLLSASVGDRVTVTCRASQGGGNYLAWYQQKPGKAPKLLIYGASKLQSGVPSRFSGSGSGTEFTLTISSLQPEDFATYYCQQLNSYPVTFGQGTKVDIKGGGGSGGGGSGGGGSEVQLVESGAEVKKPGASVKVSCKASGYTFTTYYIHWVRQAPGQGLEWMGIINPSSGSTTYTQKFQGRVTMTRDTSTSTVYIELSGLRSEDTAVYYCARGETLRGYFDYWGQGTLVTVSS
notes: On mRNA-electroporated T cells as CAR; also called Meso-CAR (M12)
Take B2: the values for the binding result with CD40-Fc [2] and with CD40-Fc [4] were “no binding (tested: 2 µg/mL)” and “no binding”, respectively. The “percent of cells in the gate” value in test [3] is 86.5%.
